Experimental data published in the supplement of paper PMC10724198.
± gives the standard deviation of the averaged measurements.

Key:
Saccharomyces cerevisiae [1] = assay: protein stability index of tFT-peptide fusion (C-terminal peptide) (PSI (0-1 scale)); higher = more stable (slower turnover); details: genetic background: wild type; temperature: 30 C
Saccharomyces cerevisiae [2] = assay: as above
Protocol: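 MPS profiling in S. cerevisiae of the tFT-X12 degron library: putative degron peptides plus stable controls, 12 aa, fused to the C-terminus of a sfGFP-mCherry timer. Cells are FACS-sorted into 8 mCherry/sfGFP bins and deep-sequenced. PSI runs from 0 (unstable) to 1 (stable). Backgrounds are wild type, das1Δ and doa10Δ at 30 °C, and wild type, das1Δ, cdc34-1 and cdc53-1 at 37 °C; 2-3 technical replicates each.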

[3] = genetic background: cdc34-1, temperature: 37 C
[4] = genetic background: cdc53-1, temperature: 37 C
[5] = genetic background: das1 deletion, temperature: 30 C
[6] = genetic background: das1 deletion, temperature: 37 C
[7] = genetic background: doa10 deletion, temperature: 30 C
[8] = genetic background: wild type, temperature: 30 C
[9] = genetic background: wild type, temperature: 37 C
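Note: PSI is a weighted mean of sequencing reads over stability bins, variants kept only with over 10 reads, mCherry proximal and sfGFP distal, peptide attached via GGGS linker.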

Sequence | protein stability index (Saccharomyces cerevisiae [1]) | protein stability index (Saccharomyces cerevisiae [2]; [3]) | protein stability index (Saccharomyces cerevisiae [2]; [4]) | protein stability index (Saccharomyces cerevisiae [2]; [5]) | protein stability index (Saccharomyces cerevisiae [2]; [6]) | protein stability index (Saccharomyces cerevisiae [2]; [7]) | protein stability index (Saccharomyces cerevisiae [2]; [8]) | protein stability index (Saccharomyces cerevisiae [2]; [9])
SVLALLWVGCWL | 0.378 ± 0.055 | 0.355 ± 0.0064 | 0.4238 ± 0.0021 | 0.271 ± 0.045 | 0.478 ± 0.017 | 0.253 ± 0.0065 | 0.265 ± 0.029 | 0.452 ± 0.028
SVQICGFWLILG | 0.386 ± 0.06 | 0.512 ± 0.031 | 0.604 ± 0.046 | 0.416 ± 0.026 | 0.5955 ± 0.0046 | 0.317 ± 0.0037 | 0.333 ± 0.011 | 0.53992 ± 0.00031
SVRGGSFLVHLC | 0.337 ± 0.043 | 0.614 ± 0.096 | 0.758 ± 0.011 | 0.636 ± 0.018 | 0.7525 ± 0.0012 | 0.154 ± 0.017 | 0.168 ± 0.015 | 0.337 ± 0.015
SVVVLHVHVRPP | 0.517 ± 0.12 | 0.618 ± 0.035 | 0.692 ± 0.018 | 0.5839 ± 0.0056 | 0.63 ± 0.011 | 0.593 ± 0.044 | 0.582 ± 0.024 | 0.6287 ± 0.0031
SWCLLVWIGGVF | 0.388 ± 0.094 | 0.288 ± 0.038 | 0.376 ± 0.033 | 0.295 ± 0.027 | 0.451 ± 0.02 | 0.251 ± 0.01 | 0.264 ± 0.03 | 0.432 ± 0.017
SWGRGADRWRRA | 0.319 ± 0.056 | 0.645 ± 0.042 | 0.7218 ± 0.0025 | 0.649 ± 0.017 | 0.7267 ± 0.0056 | 0.156 ± 0.019 | 0.195 ± 0.016 | 0.4725 ± 0.0013
SYWNSSPKCGNW | 0.744 ± 0.0092 | 0.712 ± 0.064 | 0.76 ± 0.022 | 0.667 ± 0.021 | 0.7705 ± 0.0011 | 0.664 ± 0.039 | 0.681 ± 0.018 | 0.746 ± 0.011
TCRLIQLTVTLH | 0.386 ± 0.053 | 0.3115 ± 0.0026 | 0.3774 ± 0.001 | 0.257 ± 0.038 | 0.458 ± 0.0051 | 0.232 ± 0.0034 | 0.253 ± 0.018 | 0.4071 ± 0.0036
TCVVCSCVLQCV | 0.362 ± 0.04 | 0.47 ± 0.041 | 0.491 ± 0.02 | 0.307 ± 0.023 | 0.49 ± 0.0051 | 0.305 ± 0.027 | 0.324 ± 0.028 | 0.4641 ± 0.0042
TLCHLTLICVRE | 0.382 ± 0.027 | 0.221 ± 0.0099 | 0.253 ± 0.018 | 0.226 ± 0.019 | 0.358 ± 0.011 | 0.1767 ± 0.00029 | 0.21 ± 0.018 | 0.336 ± 0.012
